US8349320 (dated 2013)

T1: mouse BTLA expressed on cells (mouse, UniProt Q7TSA3 30-306)
T1 chain: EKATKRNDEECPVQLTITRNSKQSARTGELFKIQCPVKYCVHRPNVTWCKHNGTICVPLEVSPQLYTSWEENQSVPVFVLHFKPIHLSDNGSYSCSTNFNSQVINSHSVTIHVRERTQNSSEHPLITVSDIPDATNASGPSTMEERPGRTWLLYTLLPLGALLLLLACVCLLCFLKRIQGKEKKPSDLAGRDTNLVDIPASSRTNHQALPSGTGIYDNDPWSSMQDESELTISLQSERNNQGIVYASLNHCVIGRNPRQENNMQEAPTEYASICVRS


Tests used:
[1] = target: T2, human BTLA expressed on cells (human, UniProt Q7Z6A9 31-289); assay: FACS binding to transfected 293T cells; bottom panel; axis printed mHVEM:Fc, presumably hHVEM:Fc
T2 sequence (Q7Z6A9 31-289): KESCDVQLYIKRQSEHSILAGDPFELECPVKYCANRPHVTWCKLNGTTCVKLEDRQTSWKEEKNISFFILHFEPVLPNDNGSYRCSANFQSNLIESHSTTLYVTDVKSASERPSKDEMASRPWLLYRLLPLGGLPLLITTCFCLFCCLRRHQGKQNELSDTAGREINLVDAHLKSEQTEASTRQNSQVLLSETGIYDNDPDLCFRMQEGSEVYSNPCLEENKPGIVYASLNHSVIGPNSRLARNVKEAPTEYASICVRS

[2] = target: T2, human BTLA expressed on cells; assay: FACS binding to transfected 293T cells; top panel
[3] = target: T1, mouse BTLA expressed on cells; assay: FACS binding to transfected 293T cells; top panel

Binder	EC50 [1] [µg/mL]	EC50 [2] [µg/mL]	EC50 [3] [µg/mL]
human HVEM-Fc (Fc fusion, in the FIG. 3H assay biotinylated with NHS-PEO4-Biotin, 2 biotin molecules per HVEM-Fc (sites not given)) LPSCKEDEYPVGSECCPKCSPGYRVKEACGELTGTVCEPCPPGTYIAHLNGLSKCLQCQMCDPAMGLRASRNCSRTENAVCGCSPGHFCIVQDGDHCAACRAYATSSPGQRVQKGGTESQDTLCQNCPPGTFSPNGTLEECQHQTKCSWLVTKAGAGTSSSHWV	> 25		
mouse HVEM-Fc (Fc fusion) QPSCRQEEFLVGDECCPMCNPGYHVKQVCSEHTGTVCAPCPPQTYTAHANGLSKCLPCGVCDPDMGLLTWQECSSWKDTVCRCIPGYFCENQDGSHCSTCLQHTTCPPGQRVEKRGTHDQDTVCADCLTGTFSLGGTQEECLPWTNCSAFQQEVRRGTNSTDTTCSSQ		0.5	0.8
